Measurements taken from US20110201104A1 (SUNGKYUNKWAN UNIVERSITY FOUNDATION FOR CORPORATE …, published 2011).

B1: 3D8 VL protein (light-chain variable domain of anti-DNA antibody 3D8) (other)
VL: DIVMSQSPSSLAVSAGEKVTMSCKSSQSLFNSRTRKNYLAWYQQKPGQSPKLLIYWASTRESGVPDRFTGSGPGTDFTLTISSVQAEDLAVYYCKQSYYHMYTFGSGTKLEIKRAD
notes: Isolated single VL domain of mouse (MRL-lpr/lpr) IgG2a/kappa antibody 3D8; It was expressed in E. coli from vector pIg20L-3D8 VL and purified on IgG-sepharose; This domain was immobilized on the CM5 chip in the SPR assay
B2: 3D8 VH protein (heavy-chain variable domain of anti-DNA antibody 3D8) (other)
VH: EVQLQQSGPELVKPGASVKMSCKASGYTFTSYVMHWVKQKPGQGLEWIGYINPYNDGTKYNEKFKGKATLTSDKSSSTAYMELSSLTSEDSAVYYCARGAYKRGYAMDYWGQGTSVTVSS
notes: Isolated single VH domain of mouse (MRL-lpr/lpr) IgG2a/kappa antibody 3D8; It was expressed in E. coli from vector pIg20H-3D8 VH and purified on IgG-sepharose

Biological target: the molecule itself
Assay: size exclusion chromatography (HPLC, TSK G3000SWXL), phosphate buffer pH 7.4; self-association
Description: 0.02 ml of a protein (conc. 5-20 μM) was injected into a TSK G3000SWXL column (TosoHaas, Japan) and a phosphate buffer solution (50 mM sodium phosphate/150 mM NaCl, pH 7.4) was flowed therein at a flow rate of 0.7 ml/min and the chromatogram of the proteins was obtained from the absorbance at 280 nm.

| Protein | binding result |
| --- | --- |
| B1 | no binding (tested: 5-20 µM) |
| B2 | no binding (tested: 5-20 µM) |
